This is an account of results in patent CN112225809A (FUZHOU CHUANGFANG PHARMACEUTICAL TECH CO LTD, dated 2021).

The target of test [1] is T1, hPD1/Fc of human IgG1 (fluorescently labelled) (human, UniProt Q15116 25-167, limits assumed, labelled with Alexa Fluor 488 (Example 2); printed as hPD-1/hFc-FITC in Example 5.5).
T1 construct: also called hPD-1/hFc-FITC; 荧光标记的PD1(Dimeric); not shown: Fc of human IgG1
As to the kind of experiment: flow cytometry blocking assay: Alexa Fluor 488 labelled hPD1/Fc on SPC-A1-PDL1 cells. On the technique in general: In flow cytometry, cells or beads pass a laser one at a time.

The target of test [2] is T2, Human PD1/PDCD1 Protein Biotinylated (Sinobiological, Cat.No.10377-H03H-B) (human, UniProt Q15116 25-167, biotinylated).
T2 construct: Bought reagent; also called 抗原; 人PD-1
Description: BLI (Octet Red96), biotinylated PD-1 on SA sensor, antibody in solution from 50 nM in two-fold dilutions. For orientation: BLI is a label-free optical method that tracks binding on a fibre tip over time.

T2 sequence (Q15116 25-167 limits assumed): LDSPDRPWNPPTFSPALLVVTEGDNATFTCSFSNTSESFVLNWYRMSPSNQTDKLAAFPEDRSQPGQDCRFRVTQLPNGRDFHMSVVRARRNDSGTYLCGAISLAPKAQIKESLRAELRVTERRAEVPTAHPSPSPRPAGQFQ
T1 sequence (Q15116 25-167 limits assumed): as above

B1: UM1-56 (antibody, mouse IgG1, V domains shown)
VH: EVKLVESGGGLVKPGGSLKLSCAASGFTFSTYGMSWVRQTPEKRLEWVATISGGGRYTYYPDSVKGRFTISRDNAKNNLYLQMSSLRSEDTALYYCARQKGTTWFAHWGQGTLVTVSA
VL: not shown
notes: Mouse hybridoma antibody purified on Protein G; primers were designed on mouse IgG1 and kappa; also called 鼠源PD-1单克隆抗体UM1-56
As to B1, in test [1], the binding result was “binds”.

B2: hUM1-30 (antibody, human IgG4 S228P, kappa, V domains shown)
VH: EVQLVESGGGLVQPGGSLRLSCAASGFTFSTYGMSWVRQAPGKGLEWVSTISGGGRYTYYPDSVKGRFTISRDNSKNTLYLQMNSLRAEDTAVYYCARQKGTTWFAHWGQGTLVTVSS
VL: DIQMTQSPSSLSASVGDRVTITCRASESVDDNGISFMNWFQQKPGKAPKLLIYAASNQGSGVPSRFSGSGSGTDFTLTISSLQPEDFATYYCQQSKEVPWTFGQGTKVEIKR
notes: Humanised from UM1-56; also called 人源化PD-1单克隆抗体(hUM1-30); UM1-56H-1 + UM1-56K-2
B2: in test [2], the affinity, expressed as Kd, was 3.34 pM; the off-rate constant (koff) – broadly, the rate constant with which the complex falls apart – came to 5.43e-06 s⁻¹; the kon (in general, the second-order rate constant of association) is 1.63e+06 M⁻¹ s⁻¹.
